Among the data in the supplement of paper PMC9732359 are protein stability index values, retold here.

± gives the uncertainty stated by the source.

A short description of this data set: protein stability index of a GFP-peptide fusion (yeast GPS) (PSI 1-4); higher = more stable; sorted into four equal gates, so the index is relative within each strain. In short, it runs like this: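 Tiled 17-residue yeast protein peptides were fused downstream of GFP in a plasmid that also expresses Cherry, and the pooled library was carried in yeast. Mid-log cultures in leucine-free medium were sorted into four equal gates by GFP/Cherry fluorescence ratio, and plasmids from each gate were PCR-amplified and Illumina-sequenced, with reads assigned to strains by barcodes. The protein stability index for each peptide was each gate's read frequency times its gate number, summed.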

QLASQLVDLKKELAELK [RPL35A]: the protein stability index is, setting by setting: (doa10∆) 3.37 ± 0.26; (pdr5∆) 3.68 ± 0.27; (san1∆) 3.21 ± 0.066; (ubr1∆) 3.35 ± 0.078.

In the case of NVNSRNQLVEPNRIKLS [SRB5], the protein stability index runs as follows: (doa10∆) 2.29 ± 0.061; (pdr5∆) 2.43 ± 0.052; (san1∆) 2.48 ± 0.059; (ubr1∆) 2.19 ± 0.036.

In turn, YIELLPNADDIRDSIPQ [DIS3] returned a protein stability index (doa10∆) of 2.83 ± 0.075, a protein stability index (pdr5∆) of 2.85 ± 0.068, a protein stability index (san1∆) of 2.87 ± 0.078 and a protein stability index (ubr1∆) of 2.75 ± 0.039.

NRVPDGFQDRSLPHFPK [RPO31]: the protein stability index is, setting by setting: (doa10∆) 3.29 ± 0.16; (pdr5∆) 2.86 ± 0.15; (san1∆) 3.02 ± 0.11; (ubr1∆) 3.6 ± 0.2.

KLANFFSKKGNEPLSEI [YAR002W/NUP60] registered a protein stability index (doa10∆) of 2.82 ± 0.095, a protein stability index (pdr5∆) of 3.17 ± 0.076, a protein stability index (san1∆) of 3.14 ± 0.067 and a protein stability index (ubr1∆) of 3.13 ± 0.099.

As for KVIEQPITSETAMKKVE [RPL25], the protein stability index is, setting by setting: (doa10∆) 3.02 ± 0.092; (pdr5∆) 2.94 ± 0.066; (san1∆) 2.88 ± 0.066; (ubr1∆) 2.93 ± 0.074.

Take IAKPNTANAKHTSSNSR [SMB1]: the protein stability index is, setting by setting: (doa10∆) 2.93 ± 0.069; (pdr5∆) 2.73 ± 0.094; (san1∆) 2.72 ± 0.089; (ubr1∆) 2.87 ± 0.067.

In turn, LKQNAIRARIPFYGSYT [SRP54] had a protein stability index (doa10∆) of 2.82 ± 0.077, a protein stability index (pdr5∆) of 2.8 ± 0.063, a protein stability index (san1∆) of 2.5 ± 0.087 and a protein stability index (ubr1∆) of 2.89 ± 0.062.

In turn, DIWQSRDQGNDSLNDDL [YIL149C/MLP2] gave a protein stability index (doa10∆) of 3.53 ± 0.28, a protein stability index (san1∆) of 3.65 ± 0.17 and a protein stability index (ubr1∆) of 3.76 ± 0.14.

With STISAREIQTAVRLILP [HTB1], the protein stability index is, setting by setting: (doa10∆) 2.13 ± 0.11; (pdr5∆) 2.31 ± 0.12; (san1∆) 2.52 ± 0.087; (ubr1∆) 2.38 ± 0.074.

As for QRQERLRQQQQQQDQPE [RPN10], the protein stability index turned out to be 3.34 ± 0.098 (doa10∆), 2.88 ± 0.064 (pdr5∆), 2.86 ± 0.088 (san1∆) and 3.22 ± 0.056 (ubr1∆).

On to LSNFNADINLEESIRES [SIR3], for which the protein stability index (doa10∆) worked out at 3.16 ± 0.12, the protein stability index (pdr5∆) came to 2.95 ± 0.12, the protein stability index (san1∆) turned out to be 2.75 ± 0.24 and the protein stability index (ubr1∆) was determined as 3.4 ± 0.094.

For the sequence ITFLIEKAKEMIRLLGS [ECM29], the protein stability index (doa10∆) was 2.6 ± 0.12, the protein stability index (pdr5∆) came to 2.26 ± 0.1, the protein stability index (san1∆) came to 2.9 ± 0.11 and the protein stability index (ubr1∆) stood at 1.7 ± 0.12.

For the sequence AHTPMLQMYSKIRRHPN [FAS1], the protein stability index (doa10∆) came out at 2.81 ± 0.051, the protein stability index (pdr5∆) was determined as 3.03 ± 0.063, the protein stability index (san1∆) worked out at 2.96 ± 0.06 and the protein stability index (ubr1∆) stood at 2.95 ± 0.048.

In the case of IYQTLIALNLDTTVNDC [SNF2], the protein stability index is 2.19 ± 0.035 (doa10∆), 2.53 ± 0.04 (pdr5∆), 2.25 ± 0.054 (san1∆) and 2.35 ± 0.033 (ubr1∆).

As to DTRITHLLRQTNAFLDS [SNF2], the protein stability index was 1.5 ± 0.037 (doa10∆), 1.47 ± 0.033 (pdr5∆), 1.54 ± 0.064 (san1∆) and 1.61 ± 0.024 (ubr1∆).

With NTVVGISGDISDMQHIE [PRE4], the protein stability index came out at 2.94 ± 0.12 (doa10∆), 3.29 ± 0.12 (pdr5∆), 3.15 ± 0.17 (san1∆) and 2.82 ± 0.12 (ubr1∆).

With LNDTTEKSKALESEIAS [SMC2], the protein stability index turned out to be 3.53 ± 0.19 (doa10∆), 3.34 ± 0.14 (pdr5∆), 3.43 ± 0.086 (san1∆) and 3.18 ± 0.086 (ubr1∆).

For LKTADNRDRSFQLLEPL [PGD1], the protein stability index (doa10∆) is 3.29 ± 0.058, the protein stability index (pdr5∆) turned out to be 3.38 ± 0.086, the protein stability index (san1∆) worked out at 3.38 ± 0.039 and the protein stability index (ubr1∆) came out at 3.18 ± 0.074.

Turning to DIVQYHLELYTSQYGTP [PRE3], the protein stability index by setting is: (doa10∆) 2.1 ± 0.063; (pdr5∆) 1.74 ± 0.058; (san1∆) 1.77 ± 0.07; (ubr1∆) 2 ± 0.042.

Turning to LIIIEKKQKLIEEQDKK [ITC1], the protein stability index reads like this: (doa10∆) 3.12 ± 0.13; (pdr5∆) 2.9 ± 0.21; (san1∆) 2.96 ± 0.17; (ubr1∆) 2.89 ± 0.084.

In the case of FDFIKDNETPSKKTSPK [YOR098C/NUP1], the protein stability index reads like this: (doa10∆) 2.25 ± 0.051; (pdr5∆) 2.87 ± 0.043; (san1∆) 2.6 ± 0.063; (ubr1∆) 2.96 ± 0.038.

As for PTQTKGNDAKPAKVEDV [YLR335W/NUP2], the protein stability index (doa10∆) is 3.21 ± 0.057, the protein stability index (pdr5∆) came out at 3.25 ± 0.053, the protein stability index (san1∆) was 3.27 ± 0.039 and the protein stability index (ubr1∆) came out at 3.1 ± 0.047.

Consider WKPNPSYDVENVNSRNQ [SRB5], for which the protein stability index reads like this: (doa10∆) 2.96 ± 0.084; (pdr5∆) 2.95 ± 0.14; (san1∆) 3 ± 0.11; (ubr1∆) 3.3 ± 0.085.

On to TKKKSKFMTNSTAFVPT [ARP9], for which the protein stability index runs as follows: (doa10∆) 2.65 ± 0.054; (pdr5∆) 2.79 ± 0.045; (san1∆) 2.47 ± 0.058; (ubr1∆) 2.77 ± 0.038.
